Laboratory results reported in patent US20150344570A1 (published 2015).

T1: FcgRIIaH (human, UniProt P12318 34-217)
T1 construct: extracellular domain; also called FcγRIIa H; FcgRIIa type H; not shown: His tag attached to the C terminus
T1 sequence (looked up): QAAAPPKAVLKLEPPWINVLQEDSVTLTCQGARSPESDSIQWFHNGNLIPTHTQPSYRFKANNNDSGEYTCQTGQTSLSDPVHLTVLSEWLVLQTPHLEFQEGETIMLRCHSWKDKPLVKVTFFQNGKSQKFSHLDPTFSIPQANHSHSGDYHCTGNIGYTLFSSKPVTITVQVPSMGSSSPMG

T2: FcgRIIb (human, UniProt P31994 43-217)
T2 construct: extracellular domain; also called FcγRIIb; 2b; not shown: His tag attached to the C terminus
T2 sequence (looked up): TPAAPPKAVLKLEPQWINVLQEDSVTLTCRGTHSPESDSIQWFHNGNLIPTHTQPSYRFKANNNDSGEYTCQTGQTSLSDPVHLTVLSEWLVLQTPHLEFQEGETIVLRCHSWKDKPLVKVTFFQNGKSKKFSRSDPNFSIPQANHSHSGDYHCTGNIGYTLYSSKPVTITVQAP

T3: FcgRIIaR (human, UniProt P12318 34-217)
T3 construct: extracellular domain; also called FcγRIIa R; FcgRIIa type R; not shown: His tag attached to the C terminus
T3 sequence (looked up): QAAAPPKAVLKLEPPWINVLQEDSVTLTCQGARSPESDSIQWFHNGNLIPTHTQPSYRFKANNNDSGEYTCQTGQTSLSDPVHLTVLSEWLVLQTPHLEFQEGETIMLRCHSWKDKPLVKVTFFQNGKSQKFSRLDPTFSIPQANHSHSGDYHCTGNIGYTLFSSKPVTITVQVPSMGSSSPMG

T4: FcgRIIb (human, UniProt P31994 43-217)
T4 construct: extracellular domain; also called FcγRIIb; CD32B
T4 sequence (looked up): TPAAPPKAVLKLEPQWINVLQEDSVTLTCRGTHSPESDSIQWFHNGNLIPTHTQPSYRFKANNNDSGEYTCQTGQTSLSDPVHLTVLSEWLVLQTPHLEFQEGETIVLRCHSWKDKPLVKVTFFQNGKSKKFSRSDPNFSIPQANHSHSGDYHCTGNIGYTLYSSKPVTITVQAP

T5: FcgRIIa R (human, UniProt P12318 34-217)
T5 construct: extracellular domain; also called FcγRIIa R; FcγRIIa type R
T5 sequence (looked up): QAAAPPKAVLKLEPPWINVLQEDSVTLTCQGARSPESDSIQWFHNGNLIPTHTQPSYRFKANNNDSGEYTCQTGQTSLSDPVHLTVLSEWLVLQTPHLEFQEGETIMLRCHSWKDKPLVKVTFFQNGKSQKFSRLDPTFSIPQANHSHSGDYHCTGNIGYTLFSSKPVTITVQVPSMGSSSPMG

T6: FcgRIIa H (human, UniProt P12318 34-217)
T6 construct: extracellular domain; also called FcγRIIa H; FcγRIIa type H
T6 sequence (looked up): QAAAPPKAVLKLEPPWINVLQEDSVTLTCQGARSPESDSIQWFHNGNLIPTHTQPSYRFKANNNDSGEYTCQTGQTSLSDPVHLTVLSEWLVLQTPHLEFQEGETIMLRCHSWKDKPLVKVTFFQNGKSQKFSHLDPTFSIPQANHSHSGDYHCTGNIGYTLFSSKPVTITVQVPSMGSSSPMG


Legend:
FcgRIIaH = biological target: T1, FcgRIIaH; test: SPR (Biacore); KD of H240-Kn033/H240-Hl033/L73-k0 divided by KD of the variant
FcgRIIIaV = biological target: T7, FcgRIIIaV (human, UniProt P08637 17-208); test: as above
T7 construct: extracellular domain; also called FcγRIIIa V; 3aV; not shown: His tag attached to the C terminus

FcgRIIIaF = biological target: T8, FcgRIIIaF (human, UniProt P08637 17-208); test: as above
T8 construct: extracellular domain; also called FcγRIIIa F; 3aF; not shown: His tag attached to the C terminus

FcgRIIb [1] = biological target: T2, FcgRIIb; test: as above
FcgRIIaR = biological target: T3, FcgRIIaR; test: as above
FcgRIIb [2] = biological target: T4, FcgRIIb; test: SPR (Biacore), antibody captured, FcgR as analyte
Description: (§1) Specifically, H240-Kn120 (SEQ ID NO: 99) resulting from introduction of S239M into H240-Kn067 and H240-Kn126 (SEQ ID NO: 100) resulting from introduction of Y235Q into H240-Kn120 were prepared according to the method described in Reference Example 1. […] Those described above were assayed for the binding to each FcgR according to the method described in Reference Example 8.
(§2) Analysis of interaction between objective antibody and the FcγR was carried out using Biacore T100 (GE Healthcare), Biacore T200, Biacore A100, and Biacore 4000. HBS-EP+ (GE Healthcare) was used as the running buffer, and the measurement temperature was set to 25° C. Chips produced by immobilizing the antigen peptide by the amine coupling method to a Series S sensor Chip CM5 (GE Healthcare), chips produced by allowing preliminarily biotinylated antigen peptides to interact with and immobilize onto a Series S Sensor Chip SA (certified) (GE Healthcare), chips produced by immobilizing Protein L (ACTIGEN, BioVision) to Series S Sencor Chip CM5 (GE Healthcare), or chips produced by immobilizing Protein A/G (Thermo Scientific) to Series S Sencor Chip CM5 (GE Healthcare) were used. Antibodies of interest were captured onto these chips, and allowed to interact to each FcγR diluted with running buffer. To regenerate and repeatedly use the chip, the antibodies captured onto the chip were washed off by reacting 10 mM glycine-HCl, pH 1.5.

FcgRIIIa V = biological target: T9, FcgRIIIa V (human, UniProt P08637 17-208); test: SPR (Biacore), antibody captured, FcgR as analyte
T9 construct: extracellular domain; polymorphic site made after J. Clin. Invest; also called FcγRIIIa V
Description: as §1, §2

FcgRIIIa F = biological target: T10, FcgRIIIa F (human, UniProt P08637 17-208); test: SPR (Biacore), antibody captured, FcgR as analyte
T10 construct: extracellular domain; polymorphic site made after J. Clin. Invest; also called FcγRIIIa F
Description: as §1, §2

FcgRIIa R = biological target: T5, FcgRIIa R; test: SPR (Biacore), antibody captured, FcgR as analyte
Description: as §1, §2

FcgRIIa H = biological target: T6, FcgRIIa H; test: SPR (Biacore), antibody captured, FcgR as analyte
Description: as §1, §2

FcgRIa = biological target: T11, FcgRIa (human, UniProt P12314 16-292); test: SPR (Biacore), antibody captured, FcgR as analyte
T11 construct: extracellular domain; also called FcγRIa; FcγRI
Description: as §1, §2

T11 sequence (P12314 16-292): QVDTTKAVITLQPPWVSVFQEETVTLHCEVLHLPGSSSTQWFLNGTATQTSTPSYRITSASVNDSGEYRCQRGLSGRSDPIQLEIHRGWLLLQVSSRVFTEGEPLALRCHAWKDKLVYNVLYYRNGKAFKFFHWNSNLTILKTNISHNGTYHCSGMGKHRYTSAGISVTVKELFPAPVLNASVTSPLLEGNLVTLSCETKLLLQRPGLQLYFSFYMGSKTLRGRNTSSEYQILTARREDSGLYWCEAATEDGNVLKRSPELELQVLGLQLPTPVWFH
T9 sequence (P08637 17-208 F176V limits assumed): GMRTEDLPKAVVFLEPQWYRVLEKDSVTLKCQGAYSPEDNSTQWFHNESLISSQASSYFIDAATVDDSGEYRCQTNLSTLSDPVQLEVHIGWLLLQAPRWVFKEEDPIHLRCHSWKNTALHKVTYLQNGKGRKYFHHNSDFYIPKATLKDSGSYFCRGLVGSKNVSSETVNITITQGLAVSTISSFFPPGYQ
T7 sequence (P08637 17-208 F176V limits assumed): as above
T10 sequence (P08637 17-208): as the sequence (P08637 17-208 F176V limits assumed) above, with V160F counted along it
T8 sequence (P08637 17-208): as the sequence (P08637 17-208 F176V limits assumed) above, with V160F counted along it

Row | fold 2aH (FcgRIIaH) [fold] | fold 3aV (FcgRIIIaV) [fold] | fold 3aF (FcgRIIIaF) [fold] | fold 2b (FcgRIIb [1]) [fold] | fold 2aR (FcgRIIaR) [fold] | Kd (FcgRIIb [2]) [nM] | Kd (FcgRIIIa V) [nM] | Kd (FcgRIIIa F) [nM] | Kd (FcgRIIa R) [nM] | Kd (FcgRIIa H) [nM] | Kd (FcgRIa) [nM] | Binder
1 | 0.7 | 7 | 3.7 | 1.3 | 1.5 | – | – | – | – | – | – | H240-afucosyl_G1d/L73-k0 (antibody, human IgG1, kappa, afucosylated: fucose removed from the sugar chain of H240-G1d, also called afucosylated antibody) heavy: not shown light: DIQMTQSPSSLSASVGDRVTITCRASQDIHKYIAWYQQKPGQAPRLLIQYTSTLQPGVPSRFSGSGSGTDYTFTISSLQPEDIATYYCLQYEQLRTFGGGTKVEIKRTVAAPSVFIFPPSDEQLKSGTASVVCLLNNFYPREAKVQWKVDNALQSGNSQESVTEQDSKDSTYSLSSTLTLSKADYEKHKVYACEVTHQGLSSPVTKSFNRGEC
2 | – | – | – | – | – | 520 | 0.64 | 3.7 | 76 | 170 | 0.4 | H240-Kn126/H240-Hl068/L73-k0 (antibody, human IgG1, kappa, H240-Kn126: Y235Q introduced into H240-Kn120) heavy 1: QDQLVQSGAEVKKPGASVKVSCKASGFNIKDTYIQWVRQAPGQGLEWMGRIDPLRKQTKYREKFEGRVTITADTSTNTAYMELSSLRSEDTAVYYCVRSGREFDYWGQGTLVTVSSASTKGPSVFPLAPSSKSTSGGTAALGCLVKDYFPEPVTVSWNSGALTSGVHTFPAVLQSSGLYSLSSVVTVPSSSLGTQTYICNVNHKPSNTKVDKKVEPKSCDKTHTCPPCPAPEYQWGPMVFLFPPKPKDTLMISRTPEVTCVVVDVSDEDPEVKFNWYVDGVEVHNAKTKPREEQYNATYRVVSVLTVLHQDWLNGKEYKCKVSNKDLPAPIEKTISKAKGQPREPQVCTLPPSRDELTKNQVSLWCLVKGFYPSDIAVEWESNGQPENNYKTTPPVLDSDGSFFLYSKLTVDKSRWQQGNVFSCSVMHEALHNHYTQKSLSLSP heavy 2: QDQLVQSGAEVKKPGASVKVSCKASGFNIKDTYIQWVRQAPGQGLEWMGRIDPLRKQTKYREKFEGRVTITADTSTNTAYMELSSLRSEDTAVYYCVRSGREFDYWGQGTLVTVSSASTKGPSVFPLAPSSKSTSGGTAALGCLVKDYFPEPVTVSWNSGALTSGVHTFPAVLQSSGLYSLSSVVTVPSSSLGTQTYICNVNHKPSNTKVDKKVEPKSCDKTHTCPPCPAPELLGGPSVFLFPPKPKDTLMISRTPEVTCVVVDVSHEEPEVKFNWYVDGVEVHNAKTKPREEQYNSTYRVVSVLTVLHQDWLNGKEYKCKVSNDALPKPIEETISKAKGQPREPQVYTLPPSRCELTKNQVSLSCAVKGFYPSDIAVEWESNGQPENNYKTTPPVLDSDGSFFLVSKLTVDKSRWQQGNVFSCSVMHEALHNHYTQKSLSLSP light: DIQMTQSPSSLSASVGDRVTITCRASQDIHKYIAWYQQKPGQAPRLLIQYTSTLQPGVPSRFSGSGSGTDYTFTISSLQPEDIATYYCLQYEQLRTFGGGTKVEIKRTVAAPSVFIFPPSDEQLKSGTASVVCLLNNFYPREAKVQWKVDNALQSGNSQESVTEQDSKDSTYSLSSTLTLSKADYEKHKVYACEVTHQGLSSPVTKSFNRGEC
